This note sets out measurements from PMC8371321, “A Novel Z-Ring Associated Protein ZapA-Like Protein (PA5407) From Pseudomonas aeruginosa Promotes FtsZ to Form Double Filaments” (Frontiers in Microbiology, 2021).

The target of assay [1] is T1, FtsZ from Pseudomonas aeruginosa (P. aeruginosa, UniProt P47204 1-394).
T1 construct: FtsZ, Pseudomonas aeruginosa; pET15b containing the entire ftsZ gene (NdeI/BamHI); His6 tag removed with thrombin; The construct is from Chen et al., 2012; Residues of the vector may be left after the thrombin cut; Forms protofilaments with GTP; also called PaFtsZ; source: E. coli BL21(DE3), purified (Talon column, thrombin, source Q column)
T1 sequence (looked up): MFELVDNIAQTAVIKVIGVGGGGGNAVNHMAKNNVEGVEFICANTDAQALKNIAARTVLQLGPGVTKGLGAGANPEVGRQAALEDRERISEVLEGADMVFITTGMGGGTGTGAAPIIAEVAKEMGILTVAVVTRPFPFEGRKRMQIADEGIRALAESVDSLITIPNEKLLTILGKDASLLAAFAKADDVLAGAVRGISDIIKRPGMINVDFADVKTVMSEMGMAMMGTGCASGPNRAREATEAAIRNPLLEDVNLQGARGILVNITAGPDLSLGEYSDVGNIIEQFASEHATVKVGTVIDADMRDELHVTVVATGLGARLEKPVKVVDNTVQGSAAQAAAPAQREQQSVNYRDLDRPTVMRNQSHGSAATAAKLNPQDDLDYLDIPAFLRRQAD
Briefly: co-sedimentation; 15 uM FtsZ with 15 or 30 uM ZapAL, 1 mM GTP, 10 min at room temperature, 80,000 rpm for 30 min at 25 C (Beckman TLA100); pellet and supernatant by SDS-PAGE and ImageJ. Conditions: both partners purified.

Assay [2] concerns the target T1, FtsZ from Pseudomonas aeruginosa. The assay is described as follows: light scattering; FtsZ with ZapAL, ZapA or a 1:1 mixture of both, mixed with 1 mM or 0.1 mM GTP, HMK buffer (50 mM HEPES pH 7.5, 5 mM MgAc, 100 mM KAc), room temperature, 340 nm. Conditions: both partners purified.

B1: ZapA-Like protein (ZapAL; PA5407) from Pseudomonas aeruginosa (natural protein, P. aeruginosa, UniProt Q9HTF7 1-96, looked up)
chain: MSRDGVQVLSILGRDYSIRVPAGEERALADAAALLQAEVDANKRKFPYVTSNELVVLSALNLCARQLGANDGESPRLRAVEQRLEALVERIAGASG
notes: ZapA-Like protein ZapAL (PA5407), Pseudomonas aeruginosa, 96 amino acids; pET15b containing the entire zapAL gene (NdeI/BamHI); Stored and used with the His6 tag; also called ZapL; source: E. coli BL21(DE3), purified (Talon column)
B1: the “stoichiometry N” value in assay [1] was ~1 FtsZ:ZapAL (molar ratio).

B2: ZapA (PA5227) from Pseudomonas aeruginosa (natural protein, P. aeruginosa, UniProt Q9HTW3 1-104, looked up)
chain: MSQSNTLTVQILDKEYCINCPDDERANLESAARYLDGKMREIRSSGKVIGADRVAVMAALNITHDLLHRKERLDQESSSTRERVRELLDRVDRALANPADAGEA
notes: pET15b containing the entire zapA gene (NdeI/BamHI); The construct is from Rahman et al., 2020; Stored and used with the His6 tag; also called PA5207; source: E. coli BL21(DE3), purified (Talon column)
Take B2: the binding result in assay [2] is on record as “binds”.
